The experiment has as its target human CXCR4 (human) (UniProt P61073). Nature of the experiment: flow cytometry, IgG 10 µg/mL, CXCR4-expressing Ramos (RA1) cells.

Sequence of human CXCR4 (human) (P61073 whole entry): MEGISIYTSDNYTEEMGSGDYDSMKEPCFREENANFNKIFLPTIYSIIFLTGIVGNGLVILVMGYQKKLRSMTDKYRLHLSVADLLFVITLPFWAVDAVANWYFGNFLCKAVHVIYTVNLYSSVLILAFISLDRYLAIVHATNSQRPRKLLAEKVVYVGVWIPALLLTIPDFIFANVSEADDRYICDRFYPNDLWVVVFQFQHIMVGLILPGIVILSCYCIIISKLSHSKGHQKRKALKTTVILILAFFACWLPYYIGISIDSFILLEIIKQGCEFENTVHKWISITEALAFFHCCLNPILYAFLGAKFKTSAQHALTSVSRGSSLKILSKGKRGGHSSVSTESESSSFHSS

“human isotypic IgG1 kappa control (Coger Sarl, Paris, France) (antibody)”: the MFI was determined as 42.

For the origin of these results see patent publication US20190389958A1, “ANTI-CXCR4 ANTIBODIES” (MSM Protein Technologies, Inc., priority 2017, published 2019).
